This passage reports Kd results from publication doi:10.1101/2025.08.28.672883 (2025).

The target in this assay is SARS-CoV-2 spike receptor-binding domain, prototype (RBD-WT) (SARS-CoV-2, UniProt P0DTC2 333-528). In words: BLI. Background: Biolayer interferometry detects binding as a change in optical thickness at a sensor tip.

“And” between values parts separate entries of the source, which are not always exact repeats. Equal values may be shown once.

B1: VYD222 Fab (Fab, V domains shown)
VH: EVQLVESGGGLVKPGGSLRLSCAASGFTFGSYEMNWVRQAPGKGLEWVSSISEDGYSTYYPDSLKGRFTISRDSAKNSLYLQMNSLRADDTAVYYCARDFGGDTAWAGTGFTYWGQGTLVTVSS
VL: QSVLTQPPSVSGAPGQRITISCTGSSSNIGAGYDVHWYQQLPGTAPKLLIYGSSSRNYGVPDRFSGSKSGTSASLAITGLQAEDEADYYCQSYDSDLGVLYTFGTGTKVTVL
In the case of B1, the equilibrium dissociation constant (Kd) (usually a measure of binding affinity in units of concentration) is 5.4 nM and 5 nM.

B2: ADI-77310 Fab (Fab, V domains shown)
VH: EVQLVESGGGLVKPGGSLRLSCAASGFTFGSYYMNWVRQAPGKGLEWVSSISEDGYSTYYPDSLKGRFTISRDSAKNSLYLQMNSLRADDTAVYYCARDFGGHTAWAGTGFTYWGQGTLVTVSS
VL: QSVLTQPPSVSGAPGQRITISCTGSSSNIGAGYDVHWYQQLPGTAPKLLIYGSSSRNSGVPDRFSGSKSGTSASLAITGLQAEDEADYYCQSYDSDLSVLYTFGTGTKVTVL
On to B2, for which the Kd is 1 nM and 0.8 nM.
